Reference: patent publication US20170052184A1 (published 2017)
Ends that are not written are not given here.

Assays:
[1] = molecular target: T1, WT1STHV biotin labeled HCV core peptide (hepatitis C virus, biotin labeled); test: EIA; Ab 250 ng/mL captured on anti-mouse Fc; bt-peptide 500 ng/mL
T1 peptide: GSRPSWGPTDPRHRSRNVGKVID

[2] = molecular target: T2, Mut1T110N biotin labeled HCV core peptide (hepatitis C virus, biotin labeled); test: as above
T2 peptide: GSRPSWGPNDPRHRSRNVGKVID

[3] = molecular target: T3, C113WT biotin labeled HCV core peptide (hepatitis C virus, also: biotin labeled, position not given here); test: as above
T3 peptide: RGSRPSWGPTD

[4] = molecular target: T4, Mut6T110S biotin labeled HCV core peptide (hepatitis C virus); test: EIA; Ab 31.25 ng/mL captured on anti-mouse Fc; bt-peptide 500 ng/mL
[5] = molecular target: T5, C113T109N biotin labeled HCV core peptide (hepatitis C virus, also: biotin labeled, position not given here); test: as above
T5 peptide: RGSRPSWGPND

[6] = molecular target: T1, WT1STHV biotin labeled HCV core peptide; test: as above
[7] = molecular target: T3, C113WT biotin labeled HCV core peptide; test: as above
[8] = molecular target: T4, Mut6T110S biotin labeled HCV core …; test: EIA; Ab 1.953 ng/mL captured on anti-mouse Fc; bt-peptide 500 ng/mL
[9] = molecular target: T5, C113T109N biotin labeled HCV core …; test: as above
[10] = molecular target: T1, WT1STHV biotin labeled HCV core peptide; test: as above
[11] = molecular target: T2, Mut1T110N biotin labeled HCV core …; test: as above
[12] = molecular target: T3, C113WT biotin labeled HCV core peptide; test: as above
[13] = molecular target: T4, Mut6T110S biotin labeled HCV core …; test: EIA; Ab 1000 ng/mL captured on anti-mouse Fc; bt-peptide 500 ng/mL
[14] = molecular target: T5, C113T109N biotin labeled HCV core …; test: as above
[15] = molecular target: T1, WT1STHV biotin labeled HCV core peptide; test: as above
[16] = molecular target: T2, Mut1T110N biotin labeled HCV core …; test: as above
[17] = molecular target: T3, C113WT biotin labeled HCV core peptide; test: as above
[18] = molecular target: T4, Mut6T110S biotin labeled HCV core …; test: EIA; Ab 500 ng/mL captured on anti-mouse Fc; bt-peptide 500 ng/mL
[19] = molecular target: T5, C113T109N biotin labeled HCV core …; test: as above
[20] = molecular target: T1, WT1STHV biotin labeled HCV core peptide; test: as above
[21] = molecular target: T2, Mut1T110N biotin labeled HCV core …; test: as above
[22] = molecular target: T3, C113WT biotin labeled HCV core peptide; test: as above
[23] = molecular target: T4, Mut6T110S biotin labeled HCV core …; test: EIA; Ab 3.906 ng/mL captured on anti-mouse Fc; bt-peptide 500 ng/mL
[24] = molecular target: T5, C113T109N biotin labeled HCV core …; test: as above
[25] = molecular target: T1, WT1STHV biotin labeled HCV core peptide; test: as above
[26] = molecular target: T2, Mut1T110N biotin labeled HCV core …; test: as above
[27] = molecular target: T3, C113WT biotin labeled HCV core peptide; test: as above

B1: HCV Neo4 monoclonal antibody (antibody, V domains shown)
VH: QIQLKESGPAVIKPSQSLSLTCIVSGFSITSSVYCWQWIRQPPGKGLEWMGRICYDGSVDYSPSITSRGTISRDTSLNKVFFQLSSVTNEDTAMYYCSRENHIDYYDTTYPSFDVWGAGTTVTVSS
VL: DIVLTQSPASLIVSLGQRATISCRASKSVNEYGYTYMHWYQQKPGLPPKLLIYLASNLDSGVPARFSGSGSGTDFTLNIHPVEEEDAATYYCQHSRELPYTFGGGTKLEIKR
[1]
  signal at 492 nm: 1.99 OD 492 nm
[2]
  signal at 492 nm: 0.089 OD 492 nm
[3]
  signal at 492 nm: 0.0607 OD 492 nm
[4]
  signal at 492 nm: 0.48 OD 492 nm
[5]
  signal at 492 nm: 0.0815 OD 492 nm
[6]
  signal at 492 nm: 1.67 OD 492 nm
[7]
  signal at 492 nm: 0.0622 OD 492 nm
[8]
  signal at 492 nm: 0.0717 OD 492 nm
[9]
  signal at 492 nm: 0.0853 OD 492 nm
[10]
  signal at 492 nm: 0.409 OD 492 nm
[11]
  signal at 492 nm: 0.0728 OD 492 nm
[12]
  signal at 492 nm: 0.0765 OD 492 nm
[13]
  signal at 492 nm: 1.17 OD 492 nm
[14]
  signal at 492 nm: 0.0591 OD 492 nm
[15]
  signal at 492 nm: 2 OD 492 nm
[16]
  signal at 492 nm: 0.0678 OD 492 nm
[17]
  signal at 492 nm: 0.222 OD 492 nm
[18]
  signal at 492 nm: 1.17 OD 492 nm
[19]
  signal at 492 nm: 0.0803 OD 492 nm
[20]
  signal at 492 nm: 1.91 OD 492 nm
[21]
  signal at 492 nm: 0.065 OD 492 nm
[22]
  signal at 492 nm: 0.0561 OD 492 nm
[23]
  signal at 492 nm: 0.0847 OD 492 nm
[24]
  signal at 492 nm: 0.0717 OD 492 nm
[25]
  signal at 492 nm: 0.669 OD 492 nm
[26]
  signal at 492 nm: 0.0719 OD 492 nm
[27]
  signal at 492 nm: 0.0694 OD 492 nm
